Details: Saccharomyces cerevisiae (strain ATCC 204508 / S288c), pH 6, Thermal, DSC, Sodium phosphate 0.1 M, reversible: yes

Sequence of Cytochrome c isoform 1 F88Y|L91A, P00044 F88Y L91A (P00044 whole entry F88Y/L91A, canonical isoform): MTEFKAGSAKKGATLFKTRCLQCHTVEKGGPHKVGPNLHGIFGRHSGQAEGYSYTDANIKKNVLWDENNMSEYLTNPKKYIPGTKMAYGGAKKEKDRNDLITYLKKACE
Sequence of Cytochrome c isoform 1 L91A, P00044 (P00044 whole entry L91A, canonical isoform): as the sequence (P00044 whole entry F88Y/L91A, canonical isoform) above, with Y88F counted along it
Sequence of Cytochrome c isoform 1 wild type, P00044 (P00044 whole entry, canonical isoform): as the sequence (P00044 whole entry F88Y/L91A, canonical isoform) above, with Y88F, A91L counted along it
Sequence of Cytochrome c isoform 1 F88Y, P00044 (P00044 whole entry F88Y, canonical isoform): as the sequence (P00044 whole entry F88Y/L91A, canonical isoform) above, with A91L counted along it

Substance	ddG of mutation (higher = less stable) (25 °C, structure 1YCC)	heat capacity change of unfolding (25 °C, structure 1YCC)	unfolding enthalpy (calorimetric) (25 °C, structure 1YCC)	unfolding free energy (25 °C, structure 1YCC)	unfolding enthalpy (calorimetric) (60 °C, structure 1YCC)	unfolding free energy (60 °C, structure 1YCC)	Tm (structure 1YCC)	heat capacity change of unfolding (structure 1YCC)	unfolding enthalpy (calorimetric) (structure 1YCC)	unfolding enthalpy (van 't Hoff) (structure 1YCC)	heat capacity change of unfolding (25 °C)	unfolding enthalpy (calorimetric) (25 °C)	unfolding free energy (25 °C)	unfolding enthalpy (calorimetric) (60 °C)	Tm	heat capacity change of unfolding	unfolding enthalpy (calorimetric)	unfolding enthalpy (van 't Hoff)
Cytochrome c isoform 1 F88Y, P00044	0.7 kcal/mol	0.58 kcal/mol/K	27 kcal/mol	4.8 kcal/mol	83 kcal/mol	1.01 kcal/mol	55.8 °C	0.58 kcal/mol/K	76 kcal/mol	103 kcal/mol								
Cytochrome c isoform 1 F88Y|L91A, P00044 F88Y L91A					80 kcal/mol		45.6 °C	0.31 kcal/mol/K	57 kcal/mol	92 kcal/mol								
Cytochrome c isoform 1 L91A, P00044	2.8 kcal/mol	0.45 kcal/mol/K	23 kcal/mol	2.7 kcal/mol	79 kcal/mol	2.9 kcal/mol	46.3 °C	0.45 kcal/mol/K	57 kcal/mol	88 kcal/mol								
Cytochrome c isoform 1 wild type, P00044											0.26 kcal/mol/K	26 kcal/mol	5.5 kcal/mol	81 kcal/mol	60 °C	0.26 kcal/mol/K	81 kcal/mol	110 kcal/mol
